Data as given in patent US20100261660A1 (published 2010).

Target: T1, Soluble CD28-Ig (extracellular domain of human CD28 fused to the Fc portion of human IgG1) (human, UniProt P10747 19-152, biotin-conjugated (NHS-biotin) in the FACS binding assays)
T1 construct: extracellular domain; bought from R&D Systems; also called sCD28-Ig; CD28-Ig Fc; not shown: Fc portion of human IgG1
Experiment: competitive FACS on transfected cells, biotin-sCD28-Ig with FITC-sCTLA-4-Ig; grade 0-2 of CD28/CTLA-4 ratio vs WT hB7-1

Binder | Binding Score
Round 2 CD28BP-16 (ligand) ITPKSVTKRVKETVMLSCDYNTSTEELTSLRIYWQKDSKMVLAILPGKVQVWPEYKNRTITDMNDNPRIVILALRLSDSGTYTCVIQKPVLKGAYKLEHLTSVRLMIRADFPVPTINDLGNPSPNIRRLICSTSGGFPRPHLYWLENGEELNATNTTVSQDPGTELYMISSELDFNVTNNHSIVCLIKYGELSVSQIFPWSKPKQEPPIDQLPFWVIIPVSGALVLAAVVLYCLACRHVARWKRTRRNEETVGTERLSPIYLGSAQSSG | 2
Round 2 CD28F3-6 (ligand) ITPKSVTKRVKETVMLSCDYSTSTEELTSLRIYWQKDSKMVLAILPGKVQVWPEYKNRTITDMNDNPRIVILALRLSDSGTYTCVIQKPDLKGAYKLEHLTSVRLMIRADFPVPTINDLGNPSPNIRRLICSTSGGFPRPHLYWLENGEELNATNTTLSQDPETKLYMISSELDFNVTNNHSIVCLIKYGELSVSQIFPWSKPKQEPPIDQLPFWVIIPVSGALVLTAVVLYCLACRHVARWKRTRRNEETVGTERLSPIYLGSAQSSG | 0
Round 2 CD28F7-2 (ligand) ITPKSVTKRVKETVMLSCDYSTSTEELTSLRIYWQKDSKMVLAILPGKVQVWPEYKNRTITDMNDNPRIVILALRLSDSGTYTCVIQKPVLKGAYKLEHLASVRLMIRADFPVPTINDLGNPSPNIRRLICSTSGGFPEPRLAWMEDGEELNAVNTTVDQDLDTELYSVSSELDFNVTNNHSIVCLIKYGELSVSQIFPWSKPKQEPPIDQLPFWVIIPVSGALVLTAVVLYCLACRHVARWKRTRRNEETVGTERLSPIYLGSAQSSG | 2
Round 2 CD28F8-4 (ligand) ITPKSVTKRVKETVMLSCDYSTSTEELTSLRIYWQKDSKMVLAILPGKVQVWPEYKNRTITDMNDNPRIVILALRLSDSGTYTCVIQKPVLKGAYKLEHLASVRLMIRADFPVPTINDLGNPSPNIRRLICSTSGGFPRPHLYWLENGEELNATNTTLSQDPETKLYMISSELDFNVTNNHSIVCLIKYGELSVSQIFPWSKPKQEPPIDQLPFWVIIPVSGALVLTAVVLYCLACRHVARWKRTRRNEETVGTERLSPIYLGSAQSSG | 1
Round 2 CD28E10-6 (ligand) ITPKSVTKRVKETVMLSCDYNTSTEELTSLRIYWQKDSKMVLAILPGKVQVWPEYKNRTITDMNDNPRIVILALRLSDSGTYTCVIQKPVLKGAYKLEHLASVRLMIRADFPVPTINDLGNPSPNIRRLICSTSGGFPRPHLYWLENGEELNATNTTLSQDPETELYMISSELDFNVTNNHSIVCLIKYGELSVSQIFPWSKPKQEPPIDQLPFWVIIPVSGALVLTAVVLYCLACRHVARWKRTRRNEETVGTERLSPIYLGSAQSSG | 1
Round 2 CD28H11-3 (ligand) ITPKSVTKRVKETVMLSCDYNTSTEELTSLRIYWQKDSKMVLAILPGKVQVWPEYKNRTITDMNDNPRIVILALRLSDSGTYTCVIQKPVLKGAYKLEHLASVRLMIRADFPVPTINDLGNPSPNIRRLICSTSGGFPRPHLYWLENGEELNATNTTLSQDPETKLYMISSELDFNVTNNHSIVCLIKYGELSVSQIFPWSKPKQEPPIDQLPFWVIIPVSGALVLTAAVLYCLACRHVARWKRTRRNEETVGTERLSPIYLGSAQSSG | 1
Round 2 CD28E9-6 (ligand) ITPKSVTKRVKETVMLSCDYNTSTEELTSLRIYWQKDSKMVLAILPGKVQVWPEYKNRTITDMNDNPRIVILALRLSDKGTYTCVIQKPDLKGAYKLEHLASVRLMIRADFPVPTINDLGNPSPNIRRLICSTSGGFPRPHLYWLENGEELNATNTTVSQDPGTELYMISSELDFNVTNNHSIVCLIKYGELSVSQIFPWSKPKQEPPIDQLPFWVIIPVSGALVLTAVVLYCLACRHVARWKRTRRNEETVGTERLSPIYLGSAQSSG | 0
Round 2 CD28C6-1 (ligand) ITPKSVTKRVKETVMLSCDYSTSTEELTSLRIYWQKDSKMVLAILPGKVQVWPEYKNRTITDMNDNPRIVILALRLSDSGTYTCVIQKPVLKGAYKLEHLASVRLMIRADFPVPTINDLGNPSPNIRRLICSTSGGFPRPHLYWLENGEELNATNTTVSQDPGTELYMISSELDFNVTNNHSIVCLIKYGELSVSQIFPWSKPKQEPPIDQLPFWVIIPVSGALVLTAVVLYCLACRHGARWKRTRRNEETVGTERLSPIYLGSAQSSG | 1
Round 2 CD28E2-4 (ligand) ITPKSVTKRVKETVMLSCDYSTSTEELTSLRIYWQKDSKMVLAILPGKVQVWPEYKNRTITDMNDNPRIVILALRLSDKGTYTCVIQKPVLKGAYKLEHLASVRLMIRADFPVPTINDLGNPSPNIRRLICSTSGGFPRPHLYWLENGEELNATNTTVSQDPGTELYMISSELDFNVTNNHSIVCLIKYGELSVSQIFPWSKPKQEPPIDQLPFWVIIPVSGALVLTAVVLYCLACRHVARWKRTRRNEETVGTERLSPIYLGSAQSSG | 1
Round 2 CD28D8-9 (ligand) ITPKSVTKRVKETVMLSCDYSTSTEELTSLRIYWQKDSKMVLAILPGKVQVWPEYKNRTITDMNDNPRIVILALRLSDSGTYTCVIQKPVLKGAYKLEHLTSVRLMIRADFPVPTINDLGNPSPNIRRLICSTSGGFPRPHLYWLENGEELNATNTTVSQDPGTELYMISSELDFNVTNNHSIVCLIKYGELSVSQIFPWSKPKQEPPIDQLPFWVIIPVSGALVLTAVVLYCLACRHVARWKRTRRNEETVGTERLSPIYLGSAQSSG | 1
Round 2 CD28E5-2 (ligand) ITPKSVTKRVKETVMLSCDYNTSTEELTSLRIYWQKDSKMVLAILPGKVQVWPEYKNRTITDMNDNPRIVILALRLSDSGTYTCVIQKPDLKGAYKLEHLASVRLMIRADFPVPTINDLGNPSPNIRRLICSTSGGFPRPHLYWLENGEELNATNTTLSQDPETKLYMISSELDFNVTNNRSIVCLIKYGELSVSQIFPWSKPKQEPPIDQLPFWVIIPVSGALVLTAVVLYCLACRHVARWKRTRRNEETVGTERLSPIYLGSAQSSG | 0
Round 2 CD28C11-5 (ligand) ITPKSVTKRVKETVMLSCDYNTSTEELTSLRIYWQKDSKMVLAILPGKVQVWPEYKNRTITDMNDNPRIVILALRLSDSGTYTCVIQKPVLKGAYKLEHLTSVRLMIRADFPVPTINDLGNPSPNIRRLICSTSGGFPRPHLYWLENGEELNATNTTVSQDPGTELYMISSELDFNVTNNHSIACLIKYGELSVSQIFPWSKPKQEPPIDQLPFWVIIPVSGALVLTAVVLYCLACRHVARWKRTRRNEETVGTERLSPIYLGSAQSSG | 2
Round 2 CD28D2-9 (ligand) ITPKSVTKRVKETVMLSCDYNTSTEELTSLRIYWQKDSKMVLAILPGKVQVWPEYKNRTITDMNDNPRIVILALRLSDSGTYTCVIQKPVLKGAYKLEHLTSVRLMIRADFPVPTINDLGNPSPNIRRLICSTSGGFPRPHLYWLENGEELNATNTTLSQDPETELYMISSELDFNVTNNHSIVCLIKYGELSVSQIFPWSKPKQEPPIDQLPFWVIIPVSGALVLTAVVLYCLACRHVARWKRTRRNEETVGTERLSPIYLGSAQSSG | 1
Round 2 CD28G2-8 (ligand) ITPKSVTKRVKETVMLSCDYNTSTEELTSLRIYWQKDSKMVLAILPGKVQVWPEYKNRTITDMNDNPRIVILALRLSDSGTYTCVIQKPVLKGAYKLEHLASVRLMIRADFPVPSINDLGNPSPNIRRLICSTSGGFPRPHLYWLENGEELNATNTTVSQDPGTELYMISSELDFNVTNNHSIVCLIKYGELSVSQIFPWSKPKQEPPIDQLPFWVIIPVSGALVLTAVVLYCLACRHVARWKRTRRNEETVGTERLSPIYLGSAQSSG | 1
Round 2 CD28C8-6 (ligand) ITPKSVTKRVKETVMLSCDYNTSTEELTSLRIYWQKDSKMVLAILPGKVQVWPEYKNRTITDMNDNPRIVILALRLSDSGTYTCVIQKPVLKGAYKLEHLASVRLMIRADFPVPTINDLGNPSPNIRRLICSTSGGFPRPHLYWLENGEELNATNTTVSQDPGTELYMISSELGFNVTNNHSIVCLIKYGELSVSQIFPWSKPKQEPPIDQLPFWVIIPVSGALVLTAVVLYCLACRHVARWKRTRRNEETVGTERLSPIYLGSAQSSG | 2
Round 2 CD28BP-14 (ligand) GISQVTKSVKEMAALSCDYNISIDELARMRIYWQKDQQMVLSIISGQVEVWPEYKNRTITDMNDNPRIVILALRLSDSGTYTCVIQKPVLKGAYKLEHLASVRLMIRADFPVPTINDLGNPSPNIRRLICSTSGGFPRPHLYWLENGEELNATNTTVSQDPGTELYMISSELDFNVTNNHSIVCLIKYGELSVSQIFPWSKPKQEPPIDQLPFWVIIPVSGALVLTAVVLYCLACRHVARWKRTRRNEETVGTERLSPIYLGSAQSSG | 2
Round 2 CD28B4-3 (ligand) ITPKSVTKRVKETVMLSCDYNTSTEELTSLRIYWQKDSKMVLAILPGKVQVWPEYKNRTITDMNDNPRIVILALRLSDSGTYTCVIQKPVLKGAYKLEHLTSVRLMIRADFPVPTINDLGNPSPNIRRLICSTSGGFPRPHLYWLENGEELNATNTTLSQDPETKLYMISSELDFNMTSNHSFLCLVKYGDLTVSQTFYWQESKPTPSANQHLTWTIIIPVSAFGISVIIAVILTCLTCRNAAIRRQRRENEVEMQSCSQSP | 1
Round 2 CD28D5-6 (ligand) ITPKSVTKRVKETVMLSCDYSTSTEELTSLRIYWQKDSKMVLAILPGKVQVWPEYKNRTITDMNDNPRIVILALRLSDSGTYTCVIQKPVLKGAYKLEHLTSVRLMIRADFPVPTINDLGNPSPNIRRLICSTSGGFPRPHLYWLENGEELNATNTTLSQDPETKLYMISSELDFNMTSNHSFLCLVKYGDLTVSQSFYWQESKPTPSANQHLTWTIIIPVSAFGISVIIAVILTCLTCRNAAIRRQRRENEVEMQSCSQSP | 0
Round 2 CD28B6-3 (ligand) ITPKSVTKRVKETVMLSCDYNTSTEELTSLRIYWQKDSKMVLAILPGKVQVWPEYKNRTITDMNDNPRIVILALRLSDSGTYTCVIQKPDLKGAYKLEHLTSVRLMIRADFPVPTINDLGNPSPNIRRLICSTSGGFPRPHLYWLENGEELNATNTTLSQDPETKLYMISSELDFNMTSNHSFLCLVKYGDLTVSQTFYWQESKPTPSANQHLTWTIIIPVSAFGISVIIAVILTCLTCRNAAIRRQRRENEVKMQSCSQSP | 1
